In experiment [1] the target is stabilized soluble CON-S envelope trimer (stabilized CON-S SOSIP gp140) (HIV-1 (group M consensus)). The experiment in a line: negative stain electron microscopy; chimeric CON-S DS.SOSIP-664 trimers with a 10-fold molar excess of Fab, 1 h at room temperature; uranyl formate stain; 2D classes and 3D reconstruction (RELION).
Substrate in experiment [2]: CON-S gp120 with the N362 glycosylation site (HIV-1 (group M consensus))
The target in experiment [3] is stabilized soluble CON-S envelope trimer (stabilized CON-S SOSIP gp140) (HIV-1 (group M consensus)).
Substrate in experiment [4]: CON-S gp120 (HIV-1 (group M consensus))
The experiment in a line: ELISA; direct ELISA: HIV-1 envelope protein (2 ug/mL) in sodium bicarbonate buffer coated on 384-well plates overnight at 4 C; serially diluted antibodies 90 min; detected with HRP anti-IgG Fc; titres as area under the log-transformed curve (log AUC). For orientation: ELISA stands for enzyme-linked immunosorbent assay.

Where “and” joins values, the source holds several entries; their conditions need not be identical. Equal entries are not always repeated.

B1: DH846.1 Fab (Fab, V domains shown)
VH: QLQLQESGPGLVKPSETLSLTCDVSGVSISSNYGWGWIRQPPGKGLDWIVTIYGGTGNTYYAPSLEGRVAISKDASKNQFSLRLNSVTAADTAVYYCARKITYSSGWYYFDYWGQGVLVAVSS
VL: EIVMTQSPATLSLSPGERATLSCRASQSVSSRLAWYQQKPGQAPRLLIYDASNRATGIPDRFSGSGSGTEFTLTISGLEPEDVAVYFCQEDHNWSTFGQGTKVEIK
B1: the stoichiometry N (Fabs per trimer) in experiment [1] is 2 and 3.

B2: DH842 Fab (Fab, V domains shown)
VH: QVQLQESGPGLMQPAETLSLTCAVSRDSIGSGYYAWGWFRQVPGKGLEWIVTIYTSTGNIYDESPLKSRVTISRDTSKNQFSLKLTSVTPADTAVYFCAREGCNTVFCSAGWFDVWGPGLLVTVSS
VL: QAVLTQPTALSASPGASARLTCTLRSGISVADYRIFWYQQRPGSPPRYLLNYRTDSDHHQGSGVPSRFSGSKDDSANTGFLVISGLQSEDEADYHCMIRHNTAYIFGGGTRLTLL
Regarding B2, in experiment [1], the percent of analyzed Envs with one Fab bound came out at 34% and the percent of analyzed Envs with two Fabs bound was 53%.

B3: DH845.1 Fab (Fab, V domains shown)
VH: QVQLQESGPGLVKPSETLSLTCAVSGGSMSSVYQGWGWIRQPPGKGLEWIATTYTSTGNIYYNPSLKGRGTVSRDTSKNQFSLKLSAVTAADTAVYYCARLNLGDSGDYTGVSEYFDFWGQGALVTVSS
VL: AIQLTQSPSALSASVGDRVTISCRASQNIYSNLAWYQQKPGKAPKLLIFGASRLQSGIPSRFSGSGSGTDFTLTISSLQPEDSATYYCQQVYSNFYSFGQGTKVEIK
In the case of B3, in experiment [1], the stoichiometry N (Fabs per trimer) is 2 and 3.

B4: DH840.1 IgG (antibody, V domains shown)
VH: QVQLKESGPGLVRPSETLSLTCAVSGTSINSAYAWGWVRLPPGKGLEWIMTVYTSTGNTYSDPSLKSRVTISKDTSKNQFSLRLSSVTVEDTAVYFCARADGSDSGWPHFDNWGQGLLVTVSS
VL: EIMVTQSPATLSVSPGERATLSCRASQSVRNRIAWYQQKPGQSPRLLIYDASIRAPGIPDRLSGSGSGTEFTLTINSLEPSDVAVYFCQLEANWLTFGGGTKVEIK
Take B4: in experiment [2], the maximum percent neutralization of CON-S pseudovirus with the N362 glycan (TZM-bl cells) stood at 45%. Further, the maximum percent neutralization of wild-type CON-S pseudovirus (TZM-bl cells) in experiment [3] is 83%.

B5: DH840.1 Fab (Fab, V domains shown)
VH: QVQLKESGPGLVRPSETLSLTCAVSGTSINSAYAWGWVRLPPGKGLEWIMTVYTSTGNTYSDPSLKSRVTISKDTSKNQFSLRLSSVTVEDTAVYFCARADGSDSGWPHFDNWGQGLLVTVSS
VL: EIMVTQSPATLSVSPGERATLSCRASQSVRNRIAWYQQKPGQSPRLLIYDASIRAPGIPDRLSGSGSGTEFTLTINSLEPSDVAVYFCQLEANWLTFGGGTKVEIK
Regarding B5, in experiment [1], the percent of trimers bound by Fab came to 33% and the stoichiometry N (Fab per trimer) is 1.

B6: DH840.1 W100bA (antibody, V domains shown)
VH: QVQLKESGPGLVRPSETLSLTCAVSGTSINSAYAWGWVRLPPGKGLEWIMTVYTSTGNTYSDPSLKSRVTISKDTSKNQFSLRLSSVTVEDTAVYFCARADGSDSGAPHFDNWGQGLLVTVSS
VL: EIMVTQSPATLSVSPGERATLSCRASQSVRNRIAWYQQKPGQSPRLLIYDASIRAPGIPDRLSGSGSGTEFTLTINSLEPSDVAVYFCQLEANWLTFGGGTKVEIK
In the case of B6, the percent reduction of binding against wild-type DH840.1 in experiment [4] is 64%.

(Values after publication PMC8216552.)
